From patent US20110009473A1 (CEDARS SINAI MEDICAL CENTER, published 2011)
Blank lines part the entries; values can stand above or below the binder they belong to.

Experiments:
[1] = biological target: T1, BSA (bovine, UniProt P02769 25-607); test: protein microarray probed with biotinylated PTTG1, Streptavidin-Alexa Fluor 647
T1 construct: Control on the protein microarray; also called bovine serum albumin
Description: The human Protoarray nc3.0 study was performed as described by the manufacturer (obtained from Invitrogen Corporation; Carlsbad, Calif.). […] Arrays were scanned by GenePix 4000B (obtained from Molecular Devices Corporation; Sunnyvale, Calif.), and images analyzed using ProtoArray Prospector (Invitrogen).

[2] = biological target: T2, His-tagged PTTG1
T2 chain: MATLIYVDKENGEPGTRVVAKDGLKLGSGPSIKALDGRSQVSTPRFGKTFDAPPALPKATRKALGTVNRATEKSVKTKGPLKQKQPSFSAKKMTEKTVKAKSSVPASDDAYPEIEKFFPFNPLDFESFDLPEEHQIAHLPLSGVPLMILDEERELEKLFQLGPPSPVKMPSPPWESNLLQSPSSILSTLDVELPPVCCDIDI

[3] = biological target: control His-GST protein

T1 sequence (P02769 25-607 limits assumed): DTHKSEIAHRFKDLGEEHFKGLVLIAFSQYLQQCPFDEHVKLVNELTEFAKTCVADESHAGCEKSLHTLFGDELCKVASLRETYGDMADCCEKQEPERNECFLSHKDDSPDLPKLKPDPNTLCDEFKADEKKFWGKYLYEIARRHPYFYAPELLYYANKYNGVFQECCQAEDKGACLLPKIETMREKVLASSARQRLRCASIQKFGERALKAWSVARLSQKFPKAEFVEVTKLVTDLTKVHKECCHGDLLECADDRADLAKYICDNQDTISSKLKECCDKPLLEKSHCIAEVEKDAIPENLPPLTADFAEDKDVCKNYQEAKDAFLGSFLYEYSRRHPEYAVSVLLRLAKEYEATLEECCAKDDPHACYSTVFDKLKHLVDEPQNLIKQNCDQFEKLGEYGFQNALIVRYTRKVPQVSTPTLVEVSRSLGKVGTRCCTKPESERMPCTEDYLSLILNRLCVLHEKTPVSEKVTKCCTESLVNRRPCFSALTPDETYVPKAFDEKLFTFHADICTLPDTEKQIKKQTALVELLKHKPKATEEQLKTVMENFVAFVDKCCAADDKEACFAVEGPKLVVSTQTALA

binding result [1]: no binding
B1: pituitary tumor transforming gene 1 (PTTG1) protein (other)
chain: T2 chain
modifications: biotinylated with biotin-XX sulfosuccinimidyl ester (protein array); biotin-lysine labeled during synthesis (as prey in pull-down); endogenous and unlabeled in co-immunoprecipitation
notes: Used as biotinylated probe on the array, as endogenous protein of HCT116 lysates in co-IP, and as in vitro translated prey in the pull-down; also called securin

B2: GST-Aurora Kinase A (protein)
chain: MDRSKENCISGPVKATAPVGGPKRVLVTQQFPCQNPLPVNSGQAQRVLCPSNSSQRIPLQAQKLVSSHKPVQNQKQKQLQATSVPHPVSRPLNNTQKSKQPLPSAPENNPEEELASKQKNEESKKRQWALEDFEIGRPLGKGKFGNVYLAREKQSKFILALKVLFKAQLEKAGVEHQLRREVEIQSHLRHPNILRLYGYFHDATRVYLILEYAPLGTVYRELQKLSKFDEQRTATYITELANALSYCHSKRVIHRDIKPENLLLGSAGELKIADFGWSVHAPSSRRTTLCGTLDYLPPEMIEGRMHDEKVDLWSLGVLCYEFLVGKPPFEANTYQETYKRISRVEFTFPDFVTEGARDLISRLLKHNPSQRPMLREVLEHPWITANSSKPSNCQNKESASKQS
Aurora Kinase A phosphorylation of histone H3 (Ser10), in vitro kinase assay, Western blot [2]: Addition of PTTG1 dose-dependently inhibited Aurora Kinase A histone H3 phosphorylation
Aurora Kinase A phosphorylation of histone H3 (Ser10), in vitro kinase assay, Western blot [3]: GST-His has no effect at the same concentration
